Source: IntAct's records for PubMed 14532120

B1: Interferon alpha/beta receptor 1 (Mus musculus), P33896 (parent)
chain: MLAVVGAAALVLVAGAPWVLPSAAGGENLKPPENIDVYIIDDNYTLKWSSHGESMGSVTFSAEYRTKDEAKWLKVPECQHTTTTKCEFSLLDTNVYIKTQFRVRAEEGNSTSSWNEVDPFIPFYTAHMSPPEVRLEAEDKAILVHISPPGQDGNMWALEKPSFSYTIRIWQKSSSDKKTINSTYYVEKIPELLPETTYCLEVKAIHPSLKKHSNYSTVQCISTTVANKMPVPGNLQVDAQGKSYVLKWDYIASADVLFRAQWLPGYSKSSSGSRSDKWKPIPTCANVQTTHCVFSQDTVYTGTFFLHVQASEGNHTSFWSEEKFIDSQKHILPPPPVITVTAMSDTLLVYVNCQDSTCDGLNYEIIFWENTSNTKISMEKDGPEFTLKNLQPLTVYCVQARVLFRALLNKTSNFSEKLCEKTRPGSFSTIWIITGLGVVFFSVMVLYALRSVWKYLCHVCFPPLKPPRSIDEFFSEPPSKNLVLLTAEEHTERCFIIENTDTVAVEVKHAPEEDLRKYSSQTSQDSGNYSNEEEESVGTESGQAVLSKAPCGGPCSVPSPPGTLEDGTCFLGNEKYLQSPALRTEPALLC
B2: Interferon alpha/beta receptor 1 (Homo sapiens), P17181 (parent)
chain: MMVVLLGATTLVLVAVAPWVLSAAAGGKNLKSPQKVEVDIIDDNFILRWNRSDESVGNVTFSFDYQKTGMDNWIKLSGCQNITSTKCNFSSLKLNVYEEIKLRIRAEKENTSSWYEVDSFTPFRKAQIGPPEVHLEAEDKAIVIHISPGTKDSVMWALDGLSFTYSLVIWKNSSGVEERIENIYSRHKIYKLSPETTYCLKVKAALLTSWKIGVYSPVHCIKTTVENELPPPENIEVSVQNQNYVLKWDYTYANMTFQVQWLHAFLKRNPGNHLYKWKQIPDCENVKTTQCVFPQNVFQKGIYLLRVQASDGNNTSFWSEEIKFDTEIQAFLLPPVFNIRSLSDSFHIYIGAPKQSGNTPVIQDYPLIYEIIFWENTSNAERKIIEKKTDVTVPNLKPLTVYCVKARAHTMDEKLNKSSVFSDAVCEKTKPGNTSKIWLIVGICIALFALPFVIYAAKVFLRCINYVFFPSLKPSSSIDEYFSEQPLKNLLLSTSEEQIEKCFIIENISTIATVEETNQTDEDHKKYSSQTSQDSGNYSNEDESESKTSEELQQDFV

Variants of: B1
Conditions: with fbw1b_human FBXW11, Q9UKB1
fbw1b_human FBXW11, Q9UKB1, sequence (Q9UKB1 whole entry): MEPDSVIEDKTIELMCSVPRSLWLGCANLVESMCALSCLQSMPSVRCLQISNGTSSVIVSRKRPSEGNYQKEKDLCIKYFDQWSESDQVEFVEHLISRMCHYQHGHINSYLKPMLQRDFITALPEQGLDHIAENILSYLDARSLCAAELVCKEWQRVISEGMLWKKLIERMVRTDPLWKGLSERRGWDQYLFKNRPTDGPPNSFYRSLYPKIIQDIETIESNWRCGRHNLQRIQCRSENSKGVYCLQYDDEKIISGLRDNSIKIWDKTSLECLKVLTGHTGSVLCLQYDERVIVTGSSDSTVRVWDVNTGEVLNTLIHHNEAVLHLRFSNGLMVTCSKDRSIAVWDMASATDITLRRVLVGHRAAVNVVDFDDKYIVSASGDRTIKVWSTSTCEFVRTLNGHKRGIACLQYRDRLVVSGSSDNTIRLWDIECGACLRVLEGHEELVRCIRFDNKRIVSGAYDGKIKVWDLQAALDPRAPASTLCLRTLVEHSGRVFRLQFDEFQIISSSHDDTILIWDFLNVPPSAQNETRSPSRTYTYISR

| Variant | effect of a mutation on the interaction |
| --- | --- |
| MLAVVGAAALVLVAGAPWVLPSAAGGENLKPPENIDVYIIDDNYTLKWSSHGESMGSVTFSAEYRTKDEAKWLKVPECQHTTTTKCEFSLLDTNVYIKTQFRVRAEEGNSTSSWNEVDPFIPFYTAHMSPPEVRLEAEDKAILVHISPPGQDGNMWALEKPSFSYTIRIWQKSSSDKKTINSTYYVEKIPELLPETTYCLEVKAIHPSLKKHSNYSTVQCISTTVANKMPVPGNLQVDAQGKSYVLKWDYIASADVLFRAQWLPGYSKSSSGSRSDKWKPIPTCANVQTTHCVFSQDTVYTGTFFLHVQASEGNHTSFWSEEKFIDSQKHILPPPPVITVTAMSDTLLVYVNCQDSTCDGLNYEIIFWENTSNTKISMEKDGPEFTLKNLQPLTVYCVQARVLFRALLNKTSNFSEKLCEKTRPGSFSTIWIITGLGVVFFSVMVLYALRSVWKYLCHVCFPPLKPPRSIDEFFSEPPSKNLVLLTAEEHTERCFIIENTDTVAVEVKHAPEEDLRKYSSQTSQDAGNYSNEEEESVGTESGQAVLSKAPCGGPCSVPSPPGTLEDGTCFLGNEKYLQSPALRTEPALLC [S526A] | disrupting interaction |

Variants of: B2
Conditions: with fbw1b_human FBXW11, Q9UKB1

| Variant | effect of a mutation on the interaction |
| --- | --- |
| MMVVLLGATTLVLVAVAPWVLSAAAGGKNLKSPQKVEVDIIDDNFILRWNRSDESVGNVTFSFDYQKTGMDNWIKLSGCQNITSTKCNFSSLKLNVYEEIKLRIRAEKENTSSWYEVDSFTPFRKAQIGPPEVHLEAEDKAIVIHISPGTKDSVMWALDGLSFTYSLVIWKNSSGVEERIENIYSRHKIYKLSPETTYCLKVKAALLTSWKIGVYSPVHCIKTTVENELPPPENIEVSVQNQNYVLKWDYTYANMTFQVQWLHAFLKRNPGNHLYKWKQIPDCENVKTTQCVFPQNVFQKGIYLLRVQASDGNNTSFWSEEIKFDTEIQAFLLPPVFNIRSLSDSFHIYIGAPKQSGNTPVIQDYPLIYEIIFWENTSNAERKIIEKKTDVTVPNLKPLTVYCVKARAHTMDEKLNKSSVFSDAVCEKTKPGNTSKIWLIVGICIALFALPFVIYAAKVFLRCINYVFFPSLKPSSSIDEYFSEQPLKNLLLSTSEEQIEKCFIIENISTIATVEETNQTDEDHKKYSSQTSQDAGNYSNEDESESKTSEELQQDFV [S535A] | disrupting interaction |

Variants of: B2
Conditions: with fbw1b_human FBXW11, Q9UKB1
Remark: another data set of the same source

| Variant | effect of a mutation on the interaction |
| --- | --- |
| MMVVLLGATTLVLVAVAPWVLSAAAGGKNLKSPQKVEVDIIDDNFILRWNRSDESVGNVTFSFDYQKTGMDNWIKLSGCQNITSTKCNFSSLKLNVYEEIKLRIRAEKENTSSWYEVDSFTPFRKAQIGPPEVHLEAEDKAIVIHISPGTKDSVMWALDGLSFTYSLVIWKNSSGVEERIENIYSRHKIYKLSPETTYCLKVKAALLTSWKIGVYSPVHCIKTTVENELPPPENIEVSVQNQNYVLKWDYTYANMTFQVQWLHAFLKRNPGNHLYKWKQIPDCENVKTTQCVFPQNVFQKGIYLLRVQASDGNNTSFWSEEIKFDTEIQAFLLPPVFNIRSLSDSFHIYIGAPKQSGNTPVIQDYPLIYEIIFWENTSNAERKIIEKKTDVTVPNLKPLTVYCVKARAHTMDEKLNKSSVFSDAVCEKTKPGNTSKIWLIVGICIALFALPFVIYAAKVFLRCINYVFFPSLKPSSSIDEYFSEQPLKNLLLSTSEEQIEKCFIIENISTIATVEETNQTDEDHKKYSSQTSQDAGNYSNEDESESKTSEELQQDFV [S535A] | decreasing interaction |
